Measurements: patent US12077763B2, “RNA-based control of powdery mildew” (Greenlight Biosciences, Inc., priority 2021, dated 2024)

System: E. necator
Assay: Leaf disc assay, dry inoculum (settling tower), decrease in disease severity / hyphal growth (Example 2)
Conditions: decrease in disease severity (hyphal growth) relative to untreated control, value ± SE; for % decrease =/− SE TP1: time point 1 (untreated control hyphal growth ≥50%); for % decrease =/− SE TP2: time point 2

B1: GS3916 (nucleic acid)
sense: UUACAAUCCAUGCACCAUCCAUUAAGCGAAAAUAAACCAUCACUGUUGAGAAAGAAGUUAAACGUGAUUUGAGCUGUUAUAAGAGUUGAGUUUAACACAGUAUUUUGAAUUUGUUCUAAUCCUGUACUUGCUAUUUUUGAAUCUUCGAGUGAUGGUGCAAGAUCAACGUUGAAGUGUAUGAUAGAAUCUGGUGCAGUUUCGGUACUUAAGUACAGAUAUGUUGCAAUGCCAAAACUAUCACUAGCACCACGCAUAGCAAAGAAAAUAUCGGGAUUUGUAUCAUCACUGGCGAAAAUUUCCUGUCCAUCAGCAAGAAUAACAUCCAUACCAACGAUGUGAUCA
antisense: UGAUCACAUCGUUGGUAUGGAUGUUAUUCUUGCUGAUGGACAGGAAAUUUUCGCCAGUGAUGAUACAAAUCCCGAUAUUUUCUUUGCUAUGCGUGGUGCUAGUGAUAGUUUUGGCAUUGCAACAUAUCUGUACUUAAGUACCGAAACUGCACCAGAUUCUAUCAUACACUUCAACGUUGAUCUUGCACCAUCACUCGAAGAUUCAAAAAUAGCAAGUACAGGAUUAGAACAAAUUCAAAAUACUGUGUUAAACUCAACUCUUAUAACAGCUCAAAUCACGUUUAACUUCUUUCUCAACAGUGAUGGUUUAUUUUCGCUUAAUGGAUGGUGCAUGGAUUGUAA
- % decrease =/− SE TP1: 11 ± 9%

B2: GS3673 (nucleic acid)
sense: AACUACUAACCUCGCCGCCCUAUAUAAGAAGAUGGGAACGCAAAAUCGUGUCAAUUUGAAAGAAAAGUUAAAAGGAAUGCGAAUCCAAAUCACACAUCUGCCCCCAAAGAUUAAUAAAACAACCGGAAAGGUUAUACCAAGGAUUAAAACCAUUCAAGGCCUUGCAAAUAUUAAUGAUGGUGCCAAAGAGGAGCAUCGACCAGAGGUUGCUGGAUAUGGUGCUGGUCCUCAAAAGGUCAAGUUUUGGGUAUCUGAAGAUACUGGCACUUCUAAAACCAGCCAAAAAAACCCCUUGCCAUCUAACACUUACAUCAGUGUAUAUGAUUACUUCAAAAAAAGAUACCCAAAGAUUGAAUUGGAUCCAAUAAAUCCUGUAGUUAAUGUUGGAAACAGUGAA
antisense: UUCACUGUUUCCAACAUUAACUACAGGAUUUAUUGGAUCCAAUUCAAUCUUUGGGUAUCUUUUUUUGAAGUAAUCAUAUACACUGAUGUAAGUGUUAGAUGGCAAGGGGUUUUUUUGGCUGGUUUUAGAAGUGCCAGUAUCUUCAGAUACCCAAAACUUGACCUUUUGAGGACCAGCACCAUAUCCAGCAACCUCUGGUCGAUGCUCCUCUUUGGCACCAUCAUUAAUAUUUGCAAGGCCUUGAAUGGUUUUAAUCCUUGGUAUAACCUUUCCGGUUGUUUUAUUAAUCUUUGGGGGCAGAUGUGUGAUUUGGAUUCGCAUUCCUUUUAACUUUUCUUUCAAAUUGACACGAUUUUGCGUUCCCAUCUUCUUAUAUAGGGCGGCGAGGUUAGUAGUU
- % decrease =/− SE TP1: 34 ± 4%
- % decrease =/− SE TP2: 29 ± 6%

B3: GS3917 (nucleic acid)
sense: CCAGGCUAAAUCUGUGCUCCAAACACAGUCAGUAAUACAGACUUUAAUUGCUGAGUGUUUAUCUUUGGGGAAAACAAAAAUGAUUAUUGAUCUCUCCUCGAAUAGUGGAGGUAAUUUGGUCGUUGGUUAUGACACAUUCCGACAAUUUUUCCCUACCAUUGAACAGCCAGGUUAUUCACGAUUUCGAUUACACGAGGCGCUAAAAAUUAUUACGAAACAGAUCUCGAAAAUCGCAUCGAAUUUCUCUUUUACAAGUACAAACCCCACUGAUUAUGAUUAUUACCAAACUCCGUUUAAUUAUAGAUUCGAUCUAAAUGAAACCAAUGAAAAAUUUCUUAGCUACGAGGAUAAAUUCAGUCCAAGAAAAUUUAAUGGUGAUGAAUUCACUAGCAAUAUGA
antisense: UCAUAUUGCUAGUGAAUUCAUCACCAUUAAAUUUUCUUGGACUGAAUUUAUCCUCGUAGCUAAGAAAUUUUUCAUUGGUUUCAUUUAGAUCGAAUCUAUAAUUAAACGGAGUUUGGUAAUAAUCAUAAUCAGUGGGGUUUGUACUUGUAAAAGAGAAAUUCGAUGCGAUUUUCGAGAUCUGUUUCGUAAUAAUUUUUAGCGCCUCGUGUAAUCGAAAUCGUGAAUAACCUGGCUGUUCAAUGGUAGGGAAAAAUUGUCGGAAUGUGUCAUAACCAACGACCAAAUUACCUCCACUAUUCGAGGAGAGAUCAAUAAUCAUUUUUGUUUUCCCCAAAGAUAAACACUCAGCAAUUAAAGUCUGUAUUACUGACUGUGUUUGGAGCACAGAUUUAGCCUGG
- % decrease =/− SE TP2: 29 ± 12%

B4: GS3922 (nucleic acid)
sense: CCCGAAUGAAUGCUAUCAACAUGGGAUAGUAGUUCACGUUCACUCCGAAAUUUUAUAUUACAAAACAUACACUCUGCAUGUUCUUUUCGAAUAUGAGCCUGUAACUUUGAAUAACUUGUGAAGCCUAGAUUUAAUGGCGUACCAUCUGAAUUAAAAGAUCCUGUCAAGCAACAUUCAUUACAGAAAUAUCGAGCACUGCCAUGAGCUCGCUCUUGGUGUCGACGAAGGCUGGCGGAACUAUCGAAACCUGAGUUGCAACUUUCGCCAGUGACAGGGUCAACAUGGACACAGGGAUACGGCAUAAGCUGAAGAUGUUCAGAGCGAAUAUGACGCUGGAGAGUUUGAUGUUUUCGGAAAUUUUGGCUACAGGGUGGGUAAUUUGUACAUUUGAAU
antisense: AUUCAAAUGUACAAAUUACCCACCCUGUAGCCAAAAUUUCCGAAAACAUCAAACUCUCCAGCGUCAUAUUCGCUCUGAACAUCUUCAGCUUAUGCCGUAUCCCUGUGUCCAUGUUGACCCUGUCACUGGCGAAAGUUGCAACUCAGGUUUCGAUAGUUCCGCCAGCCUUCGUCGACACCAAGAGCGAGCUCAUGGCAGUGCUCGAUAUUUCUGUAAUGAAUGUUGCUUGACAGGAUCUUUUAAUUCAGAUGGUACGCCAUUAAAUCUAGGCUUCACAAGUUAUUCAAAGUUACAGGCUCAUAUUCGAAAAGAACAUGCAGAGUGUAUGUUUUGUAAUAUAAAAUUUCGGAGUGAACGUGAACUACUAUCCCAUGUUGAUAGCAUUCAUUCGGG
- % decrease =/− SE TP2: 27 ± 12%

B5: GS3919 (nucleic acid)
sense: AUUGCGCCAAAAUGUGAGGUAAGGAUUACUAACUUGCUGAGCUUGAAGAACUCAUCAACACCAGUAUCUUUAGCUGGUAAACAAGUUAAGCAAAUUCAAAGCAACUUACCAUCGACAAGUAAACAACUUGGAAUAUUUGCAAAAGAAAACAUCUUACCGGGCGAAUCAAUCCUUAAAGAGCUGUCAUAUCUCACUGUUAAUAAUAGACUCAAAGGCCCUCUAUGUGAUGCUUGUAGUGCUGAAAUUCCUUCUCUAUAUGAAACUGAAAGUACAGCAAUGAGCUGUCUCGAGUGUGAUGAAAUCUCAUUCUGUAGUGAUGAAUGCAAACGUGGAGCUGAGCUCGAAUAUCAUCCAGCAGUAUGUGGUAAAGAUGUUGAGACAAUUGGCAAGGACUGG
antisense: CCAGUCCUUGCCAAUUGUCUCAACAUCUUUACCACAUACUGCUGGAUGAUAUUCGAGCUCAGCUCCACGUUUGCAUUCAUCACUACAGAAUGAGAUUUCAUCACACUCGAGACAGCUCAUUGCUGUACUUUCAGUUUCAUAUAGAGAAGGAAUUUCAGCACUACAAGCAUCACAUAGAGGGCCUUUGAGUCUAUUAUUAACAGUGAGAUAUGACAGCUCUUUAAGGAUUGAUUCGCCCGGUAAGAUGUUUUCUUUUGCAAAUAUUCCAAGUUGUUUACUUGUCGAUGGUAAGUUGCUUUGAAUUUGCUUAACUUGUUUACCAGCUAAAGAUACUGGUGUUGAUGAGUUCUUCAAGCUCAGCAAGUUAGUAAUCCUUACCUCACAUUUUGGCGCAAU
- % decrease =/− SE TP1: 23 ± 8%
- % decrease =/− SE TP2: 16 ± 9%

B6: GS1814: dsRNA trigger SEQ ID NO 161; gene target Importin subunit beta-3 (nucleic acid)
DNA: TTATTGGTGGTAGAATGTTCAAAACCTCTGATATAAGTTCATAGTATTTTTGCTTGGATTTTTTGTTGAGACTCCTGAAGAATGAAGCGAAAGCTTCCATAGCGGCCAGTCGGACTGTCACGTCATCATCCTTAAATCCCTTGGTAAAAGCAGAAAGAACAGTATCTTCATGCTGCTTTTCGATTATTCTAGGAGTTGTTGAGAAGATTCTATAGGCAATCTCACGTTGGCCCATCACTTGCGACATACTGAGTGTAAAGAGAACACCTAGAATTTCGGGCCATTGCAACTTATCATCGGAGTACTGCCTAGCGACTTCTGCGACTGCATCACCTATCTTATTTCTTGTAGACGTTTCGGTTTCAGAGCTAAGGGCTTCAAGAAGTTTTTGTCTGATAATATGTCCTTGTTCTGTCGGCAAAGAGATAAATGTTTCCACTGACTGATTATTTTGTAATTTTCGAGTCTTTGAAGCTATCCGTCTGAAGATGACTGCAGCAAAAGAGCGTTTCGCAGGATCGTTTGAGCCCTGAATTTGTTCCACCAGGCCAATCAAGAGCATCTCTGGTTTAAGCAACGTCCAATTATTCGTTAAAT
- % decrease =/− SE TP1: 8 ± 4%

B7: GS3920 (nucleic acid)
sense: UCAACGUAAAUUUUAUAAGCAAGGCUCUGGUAAAGUGGAACCUUACUUUUUAAUCCUCAACAAGGAAGGAGAGUUCAUUGAUGUAGUCGUUGAAGGGCUGAUGAAUAACUUCAUAAGAUGUCAACAAACAAGAAAAAUCUCUACAGAAUUAAUUUCAGAUGCACCUAAUCAACCGGUACCAUCUCAAAUAUCUGGAUAUCAAUGUGGUAAAUUUUUUUUUAGCAAUGAGGAACUUGAGAAUACUGCAAAUGUGGCUAGAGAUAUCAUGCUUCAGAGAAGUCAAAAUAAAAUUCCCACUAAGUAUAA
antisense: UUAUACUUAGUGGGAAUUUUAUUUUGACUUCUCUGAAGCAUGAUAUCUCUAGCCACAUUUGCAGUAUUCUCAAGUUCCUCAUUGCUAAAAAAAAAUUUACCACAUUGAUAUCCAGAUAUUUGAGAUGGUACCGGUUGAUUAGGUGCAUCUGAAAUUAAUUCUGUAGAGAUUUUUCUUGUUUGUUGACAUCUUAUGAAGUUAUUCAUCAGCCCUUCAACGACUACAUCAAUGAACUCUCCUUCCUUGUUGAGGAUUAAAAAGUAAGGUUCCACUUUACCAGAGCCUUGCUUAUAAAAUUUACGUUGA
- % decrease =/− SE TP1: 14 ± 11%
- % decrease =/− SE TP2: 12 ± 12%

B8: GS3921 (nucleic acid)
sense: UUCGCGGUGUCUUCCUUUCCAGAGCCUUUAGUCUUUGAAGGAUUUUCUUCUUCAUCCCCAUCUUCACCCUCCGCUUCUGCAUUGACUUCGUCGGCCUUUUUUGCUUUUUUUUCUUCCCCAGAUUUGCCUUUCGUUGUUAGAGCUCCUAGGCCACUAGCGAGAGAAUUUGAACCAUUACCACCGCCAACAAGAACUCCUGCUUUACCUCCUAUGGUCACCUCUUGAAUACUCUGACUUUCAUUUUCCGCAGCAUUGGCUUGCUUUUUGGAAGAUGAGCUAGAGUCAUGUGAUUUUUCUGAAUUCGAUGCCUUAUUUUUCUGAUCUUUU
antisense: AAAAGAUCAGAAAAAUAAGGCAUCGAAUUCAGAAAAAUCACAUGACUCUAGCUCAUCUUCCAAAAAGCAAGCCAAUGCUGCGGAAAAUGAAAGUCAGAGUAUUCAAGAGGUGACCAUAGGAGGUAAAGCAGGAGUUCUUGUUGGCGGUGGUAAUGGUUCAAAUUCUCUCGCUAGUGGCCUAGGAGCUCUAACAACGAAAGGCAAAUCUGGGGAAGAAAAAAAAGCAAAAAAGGCCGACGAAGUCAAUGCAGAAGCGGAGGGUGAAGAUGGGGAUGAAGAAGAAAAUCCUUCAAAGACUAAAGGCUCUGGAAAGGAAGACACCGCGAA
- % decrease =/− SE TP1: 3 ± 8%
- % decrease =/− SE TP2: 8 ± 8%
